Earlier results as cited in publication PMC9238359.

What was measured:
Experiment in all cases: ITC
[1] = target: STX4 soluble lacking N-terminal peptide (UniProt Q12846)
STX4 soluble (lacks TMD) = STX4 soluble (lacks TMD) (UniProt Q12846)
STX4 N-terminal peptide = STX4 N-terminal peptide (UniProt Q12846)

For Munc18c (from UniProt O00186), the Kd [1] is given as 735 nM, the Kd (STX4 soluble (lacks TMD)) is given as 12 nM and the Kd (STX4 N-terminal peptide) is given as 1500 nM.
